In the supplement of paper PMC10065799, “High-throughput profiling of sequence recognition by tyrosine kinases and SH2 domains using bacterial peptide display” (eLife, 2023):

How the values were obtained:
Grb2 SH2 = Grb2 SH2 (UniProt P62993); assay: SH2 binding enrichment of the phosphorylated peptide, bacterial display (enrichment ratio); higher = better substrate or ligand; peptides without Tyr show the background
c-Src SH2 = assay: as above
SHP2-C SH2 = assay: as above
Hck = Hck (UniProt P08631); assay: phosphorylation enrichment, bacterial display (enrichment ratio); higher = better substrate or ligand; peptides without Tyr show the background
c-Src = assay: as above
Fyn = Fyn (UniProt P06241); assay: as above
c-Abl (mouse) = assay: as above
Jak2 = Jak2 (UniProt O60674); assay: as above
Fes = Fes (UniProt P07332); assay: as above
EPHB1 = EPHB1 (UniProt P54762); assay: as above
FGFR3 = FGFR3 (UniProt P22607); assay: as above
EPHB2 = EPHB2 (UniProt P29323); assay: as above
FGFR1 = FGFR1 (UniProt P11362); assay: as above
MERTK = MERTK (UniProt Q12866); assay: as above
AncSZ = assay: as above
Fer (mouse) = assay: as above
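Wherever SH2 binding enrichment of the phosphorylated peptide, bacterial display is given: peptide library displayed on the E. coli surface as eCPX fusions, selected cells deep-sequenced, score is each peptide's frequency after selection divided by its frequency in the input.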
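Wherever phosphorylation enrichment, bacterial display is given: 11-residue human phosphosite peptides and single-mutation variants displayed on the E. coli surface, counted by deep sequencing, each peptide's frequency after selection divided by its frequency in the unselected input library; frequency after pTyr selection over input frequency; kinase dosed for 20-30% of maximal phosphorylation in three min.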

Chain of Jak2 (O60674 whole entry, looked up): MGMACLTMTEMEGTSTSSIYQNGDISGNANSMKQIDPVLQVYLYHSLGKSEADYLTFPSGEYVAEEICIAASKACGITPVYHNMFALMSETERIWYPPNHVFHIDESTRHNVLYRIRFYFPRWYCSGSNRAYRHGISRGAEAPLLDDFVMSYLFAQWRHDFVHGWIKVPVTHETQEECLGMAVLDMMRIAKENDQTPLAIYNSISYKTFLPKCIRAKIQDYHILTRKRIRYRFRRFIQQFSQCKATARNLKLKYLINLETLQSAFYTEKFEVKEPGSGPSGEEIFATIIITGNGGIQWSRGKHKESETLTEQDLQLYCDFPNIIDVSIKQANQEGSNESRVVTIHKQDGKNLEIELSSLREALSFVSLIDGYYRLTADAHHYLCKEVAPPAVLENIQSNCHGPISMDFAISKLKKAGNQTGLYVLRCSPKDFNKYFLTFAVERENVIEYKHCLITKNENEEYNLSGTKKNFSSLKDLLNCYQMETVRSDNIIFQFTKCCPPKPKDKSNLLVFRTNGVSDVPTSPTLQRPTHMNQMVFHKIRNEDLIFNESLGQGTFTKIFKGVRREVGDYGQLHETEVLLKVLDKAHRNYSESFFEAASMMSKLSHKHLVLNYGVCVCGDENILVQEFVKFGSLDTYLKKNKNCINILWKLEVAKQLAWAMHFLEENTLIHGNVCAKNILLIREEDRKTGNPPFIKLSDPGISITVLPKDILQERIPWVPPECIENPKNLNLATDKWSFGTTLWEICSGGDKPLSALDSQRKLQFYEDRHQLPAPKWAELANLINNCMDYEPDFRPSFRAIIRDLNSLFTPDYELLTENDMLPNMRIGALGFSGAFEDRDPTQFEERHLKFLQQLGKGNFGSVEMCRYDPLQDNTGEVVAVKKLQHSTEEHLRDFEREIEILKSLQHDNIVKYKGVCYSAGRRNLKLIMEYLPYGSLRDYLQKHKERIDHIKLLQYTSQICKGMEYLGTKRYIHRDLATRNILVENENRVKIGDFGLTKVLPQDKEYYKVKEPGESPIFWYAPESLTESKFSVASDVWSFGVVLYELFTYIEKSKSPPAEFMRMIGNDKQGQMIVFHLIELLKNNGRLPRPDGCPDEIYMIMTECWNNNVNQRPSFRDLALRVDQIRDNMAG
Chain of Fyn (P06241 whole entry, looked up): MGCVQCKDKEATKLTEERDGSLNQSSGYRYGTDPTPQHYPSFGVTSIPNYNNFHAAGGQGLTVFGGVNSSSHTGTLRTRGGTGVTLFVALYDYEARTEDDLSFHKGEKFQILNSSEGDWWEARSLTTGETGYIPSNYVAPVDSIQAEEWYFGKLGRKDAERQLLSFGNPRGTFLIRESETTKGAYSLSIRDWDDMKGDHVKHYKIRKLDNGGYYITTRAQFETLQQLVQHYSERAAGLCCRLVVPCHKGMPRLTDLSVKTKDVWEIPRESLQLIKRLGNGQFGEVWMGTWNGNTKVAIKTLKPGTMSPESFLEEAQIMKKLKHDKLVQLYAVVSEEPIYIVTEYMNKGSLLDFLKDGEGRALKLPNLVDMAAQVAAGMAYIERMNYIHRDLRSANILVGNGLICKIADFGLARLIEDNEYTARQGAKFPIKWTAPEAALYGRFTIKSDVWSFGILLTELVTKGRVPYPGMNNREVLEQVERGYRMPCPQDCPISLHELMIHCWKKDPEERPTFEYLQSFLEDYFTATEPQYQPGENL
Chain of FGFR3 (P22607 whole entry, looked up): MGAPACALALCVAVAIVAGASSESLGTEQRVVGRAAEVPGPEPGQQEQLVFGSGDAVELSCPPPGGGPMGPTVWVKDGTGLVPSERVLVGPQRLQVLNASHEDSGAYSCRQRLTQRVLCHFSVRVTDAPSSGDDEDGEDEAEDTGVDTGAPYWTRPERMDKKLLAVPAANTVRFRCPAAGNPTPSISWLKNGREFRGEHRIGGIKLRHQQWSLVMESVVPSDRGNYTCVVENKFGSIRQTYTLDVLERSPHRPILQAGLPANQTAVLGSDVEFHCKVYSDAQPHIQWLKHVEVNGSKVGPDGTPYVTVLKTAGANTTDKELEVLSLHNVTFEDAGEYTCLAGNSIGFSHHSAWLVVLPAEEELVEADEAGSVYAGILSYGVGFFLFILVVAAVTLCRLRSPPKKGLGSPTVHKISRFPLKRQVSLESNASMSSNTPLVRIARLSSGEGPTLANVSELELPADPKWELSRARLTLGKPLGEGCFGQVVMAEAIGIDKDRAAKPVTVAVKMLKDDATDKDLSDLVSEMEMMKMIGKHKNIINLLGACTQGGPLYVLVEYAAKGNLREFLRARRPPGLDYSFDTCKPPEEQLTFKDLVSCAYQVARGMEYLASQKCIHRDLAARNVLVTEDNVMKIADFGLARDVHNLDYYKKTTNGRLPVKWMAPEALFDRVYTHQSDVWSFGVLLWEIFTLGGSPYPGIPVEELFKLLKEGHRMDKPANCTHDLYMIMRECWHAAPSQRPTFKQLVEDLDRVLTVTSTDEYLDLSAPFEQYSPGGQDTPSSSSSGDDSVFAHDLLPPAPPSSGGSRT
Chain of Grb2 SH2 (P62993 whole entry, looked up): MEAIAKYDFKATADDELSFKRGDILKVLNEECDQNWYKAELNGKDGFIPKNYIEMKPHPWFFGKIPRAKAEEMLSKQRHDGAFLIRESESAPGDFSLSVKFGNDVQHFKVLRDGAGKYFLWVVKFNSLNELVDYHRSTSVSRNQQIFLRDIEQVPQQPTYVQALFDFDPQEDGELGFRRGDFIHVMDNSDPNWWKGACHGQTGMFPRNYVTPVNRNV
Chain of EPHB1 (P54762 whole entry, looked up): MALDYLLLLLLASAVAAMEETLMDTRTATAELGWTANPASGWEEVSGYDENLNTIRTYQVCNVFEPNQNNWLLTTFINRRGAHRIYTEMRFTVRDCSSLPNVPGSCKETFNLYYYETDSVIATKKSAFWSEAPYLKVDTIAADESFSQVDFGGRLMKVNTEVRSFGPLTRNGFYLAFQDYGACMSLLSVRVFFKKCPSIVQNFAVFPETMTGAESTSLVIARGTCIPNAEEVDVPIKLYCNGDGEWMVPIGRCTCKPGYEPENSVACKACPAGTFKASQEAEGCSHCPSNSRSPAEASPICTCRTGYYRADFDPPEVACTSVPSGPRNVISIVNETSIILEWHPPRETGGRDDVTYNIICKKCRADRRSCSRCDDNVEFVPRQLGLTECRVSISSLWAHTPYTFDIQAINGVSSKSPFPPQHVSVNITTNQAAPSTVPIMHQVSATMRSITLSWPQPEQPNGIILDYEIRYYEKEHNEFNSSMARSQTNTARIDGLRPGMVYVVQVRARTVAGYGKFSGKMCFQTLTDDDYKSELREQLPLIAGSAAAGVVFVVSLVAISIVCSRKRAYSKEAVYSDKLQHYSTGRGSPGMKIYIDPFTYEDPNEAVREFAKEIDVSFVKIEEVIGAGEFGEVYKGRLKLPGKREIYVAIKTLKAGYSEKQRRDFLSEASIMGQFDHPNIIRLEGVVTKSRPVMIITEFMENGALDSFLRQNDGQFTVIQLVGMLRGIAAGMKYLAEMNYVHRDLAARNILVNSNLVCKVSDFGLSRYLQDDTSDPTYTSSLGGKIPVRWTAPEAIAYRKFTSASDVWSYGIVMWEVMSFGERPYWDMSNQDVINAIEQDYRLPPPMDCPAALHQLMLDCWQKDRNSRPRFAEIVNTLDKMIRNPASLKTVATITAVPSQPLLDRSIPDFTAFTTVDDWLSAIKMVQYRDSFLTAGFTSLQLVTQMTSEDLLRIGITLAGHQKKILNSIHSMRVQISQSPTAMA
Chain of FGFR1 (P11362 whole entry, looked up): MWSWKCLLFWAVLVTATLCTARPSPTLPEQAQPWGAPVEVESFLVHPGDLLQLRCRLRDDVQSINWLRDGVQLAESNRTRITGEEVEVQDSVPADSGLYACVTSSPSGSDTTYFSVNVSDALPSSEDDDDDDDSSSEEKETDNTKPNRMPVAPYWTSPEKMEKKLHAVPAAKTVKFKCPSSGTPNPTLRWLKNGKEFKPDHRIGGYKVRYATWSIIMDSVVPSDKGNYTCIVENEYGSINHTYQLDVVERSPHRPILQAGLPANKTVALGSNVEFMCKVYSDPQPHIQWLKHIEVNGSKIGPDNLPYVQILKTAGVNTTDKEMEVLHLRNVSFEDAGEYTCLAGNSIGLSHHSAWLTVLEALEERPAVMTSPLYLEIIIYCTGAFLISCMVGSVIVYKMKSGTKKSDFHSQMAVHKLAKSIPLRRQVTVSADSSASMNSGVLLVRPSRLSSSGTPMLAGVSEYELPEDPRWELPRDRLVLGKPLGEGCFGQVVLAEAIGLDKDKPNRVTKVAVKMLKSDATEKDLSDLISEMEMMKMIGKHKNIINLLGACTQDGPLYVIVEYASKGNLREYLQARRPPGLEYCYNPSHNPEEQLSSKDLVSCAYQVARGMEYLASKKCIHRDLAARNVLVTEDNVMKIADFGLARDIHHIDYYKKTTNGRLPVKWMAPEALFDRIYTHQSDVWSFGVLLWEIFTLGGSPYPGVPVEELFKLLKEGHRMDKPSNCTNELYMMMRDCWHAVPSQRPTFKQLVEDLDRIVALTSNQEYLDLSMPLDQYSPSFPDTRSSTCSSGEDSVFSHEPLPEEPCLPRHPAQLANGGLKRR
Chain of Hck (P08631 whole entry, looked up): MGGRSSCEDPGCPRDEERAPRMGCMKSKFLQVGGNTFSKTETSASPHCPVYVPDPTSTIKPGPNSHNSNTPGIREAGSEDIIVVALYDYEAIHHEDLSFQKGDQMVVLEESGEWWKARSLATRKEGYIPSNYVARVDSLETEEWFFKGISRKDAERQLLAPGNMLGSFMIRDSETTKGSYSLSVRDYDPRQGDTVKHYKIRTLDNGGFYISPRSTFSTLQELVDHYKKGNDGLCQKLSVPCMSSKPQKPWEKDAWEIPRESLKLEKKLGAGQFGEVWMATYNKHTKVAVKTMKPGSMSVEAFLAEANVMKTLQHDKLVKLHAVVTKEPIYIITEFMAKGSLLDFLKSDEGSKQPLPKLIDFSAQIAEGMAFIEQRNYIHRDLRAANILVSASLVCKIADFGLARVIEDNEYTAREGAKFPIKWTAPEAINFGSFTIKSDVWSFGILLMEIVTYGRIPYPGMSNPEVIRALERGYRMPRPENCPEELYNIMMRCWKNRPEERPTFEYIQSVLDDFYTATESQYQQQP

Row | Sequence | SH2 binding enrichment (Grb2 SH2) | SH2 binding enrichment (c-Src SH2) | SH2 binding enrichment (SHP2-C SH2) | phosphorylation enrichment (Hck) | phosphorylation enrichment (c-Src) | phosphorylation enrichment (Fyn) | phosphorylation enrichment (c-Abl (mouse)) | phosphorylation enrichment (Jak2) | phosphorylation enrichment (Fes) | phosphorylation enrichment (EPHB1) | phosphorylation enrichment (FGFR3) | phosphorylation enrichment (EPHB2) | phosphorylation enrichment (FGFR1) | phosphorylation enrichment (MERTK) | phosphorylation enrichment (AncSZ) | phosphorylation enrichment (Fer (mouse))
1 | CRAVKYLQMVD [AVPR2_Y117_G122D] | 0.798 | 0.532 | 0.755 | 0.456 | 0.318 | 0.503 | 0.535 | 0.675 | 0.922 | 0.508 | 0.585 | 0.456 | 0.427 | 0.354 | 0.71 | 0.419
2 | CTIIHYNFMCN [TP53_Y234_T231I_YF] | 1.71 | 1.23 | 1.73 | 0.56 | 0.445 | 0.482 | 0.825 | 1.5 | 1.54 | 0.718 | 0.993 | 0.553 | 0.524 | 0.434 | 1.12 | 0.686
3 | CTTIHDNYMCN [TP53_Y234_Y234D] | 1.21 | 0.922 | 0.837 | 0.546 | 0.44 | 0.435 | 0.551 | 0.799 | 1 | 0.521 | 0.539 | 0.556 | 0.541 | 0.507 | 0.817 | 0.54
4 | CTTIHYNYMHN [TP53_Y234_C238H] | 0.995 | 1.86 | 0.857 | 0.407 | 0.349 | 0.447 | 0.446 | 0.531 | 0.767 | 0.528 | 0.521 | 0.536 | 0.479 | 0.433 | 0.692 | 0.488
5 | CTTNHYNFMCN [TP53_Y234_I232N_YF] | 0.962 | 3.79 | 1.12 | 0.424 | 0.497 | 0.463 | 0.489 | 0.511 | 0.67 | 0.436 | 0.556 | 0.544 | 0.626 | 0.437 | 0.811 | 0.486
6 | CTTSHYNFMCN [TP53_Y234_I232S_YF] | 1.14 | 4.04 | 1.04 | 0.446 | 0.48 | 0.484 | 0.613 | 0.884 | 0.967 | 0.516 | 0.637 | 0.533 | 0.509 | 0.455 | 0.911 | 0.552
7 | CYCSWYRGWAP [TIMP3_Y195_G190C] | 1.31 | 1.08 | 1.26 | 1.01 | 3.7 | 0.721 | 0.882 | 1.04 | 1.08 | 0.628 | 1.02 | 0.632 | 1.19 | 0.733 | 1.03 | 3.41
8 | DAAEDYAEGVR [DHODH_Y194] | 0.937 | 0.701 | 0.63 | 0.586 | 0.45 | 0.542 | 0.695 | 0.951 | 1.31 | 0.549 | 0.746 | 0.671 | 0.561 | 0.45 | 1.21 | 0.629
9 | DAANNYARGHY [TUBA3E_Y103_S101N] | 0.85 | 0.509 | 0.558 | 0.436 | 0.442 | 0.421 | 0.559 | 0.546 | 0.575 | 0.412 | 0.45 | 0.37 | 0.469 | 0.528 | 0.691 | 0.355
10 | DALDNYVVRGV [PCCA_Y473_I475V] | 0.732 | 0.617 | 0.725 | 0.394 | 0.436 | 0.507 | 0.674 | 0.793 | 0.823 | 0.499 | 0.466 | 0.536 | 0.458 | 0.37 | 0.751 | 0.387
11 | DDEENYENVPR [FCRL3_Y722] | 1.04 | 0.699 | 0.9 | 0.589 | 0.428 | 0.555 | 0.786 | 1.11 | 1.19 | 0.619 | 0.773 | 0.572 | 0.567 | 0.45 | 1.3 | 0.57
12 | DDKQPYEKKAE [HMGB1_Y144_A149E] | 1.09 | 0.736 | 0.756 | 0.579 | 0.43 | 0.53 | 0.828 | 0.921 | 1.04 | 0.516 | 0.631 | 0.645 | 0.529 | 0.515 | 1.12 | 0.464
13 | DENWFYTQAAS [RPS19_Y54_R56Q] | 0.906 | 0.881 | 0.726 | 0.392 | 0.472 | 0.388 | 0.62 | 0.876 | 1.06 | 0.49 | 0.682 | 0.877 | 0.455 | 0.395 | 1.15 | 0.483
14 | DFFDLYGGEKL [PTPN11_Y66_F71L_YF] | 1.02 | 0.71 | 0.979 | 3.61 | 3.79 | 2.1 | 1.02 | 1.88 | 1.92 | 0.743 | 0.746 | 0.901 | 0.582 | 0.9 | 1.54 | 0.816
